Reference: patent US20190185898A1

Molecular target: core-fucosylated RNase B (21) (bovine) (UniProt P61823)
Experiment: ELISA, glycoprotein coated, AAL-biotin in serial dilution

core-fucosylated RNase B (21) (bovine), sequence (P61823 27-150): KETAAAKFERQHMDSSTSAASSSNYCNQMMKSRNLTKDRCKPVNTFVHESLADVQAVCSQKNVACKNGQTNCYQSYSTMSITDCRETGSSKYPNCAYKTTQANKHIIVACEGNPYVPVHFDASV

EC50: 275 µM
B1: Aleuria aurantia lectin (AAL) (protein, UniProt P18891 2-313, looked up)
chain: PTEFLYTSKIAAISWAATGGRQQRVYFQDLNGKIREAQRGGDNPWTGGSSQNVIGEAKLFSPLAAVTWKSAQGIQIRVYCVNKDNILSEFVYDGSKWITGQLGSVGVKVGSNSKLAALQWGGSESAPPNIRVYYQKSNGSGSSIHEYVWSGKWTAGASFGSTVPGTGIGATAIGPGRLRIYYQATDNKIREHCWDSNSWYVGGFSASASAGVSIAAISWGSTPNIRVYWQKGREELYEAAYGGSWNTPGQIKDASRPTPSLPDTFIAANSSGNIDISVFFQASGVSLQQWQWISGKGWSIGAVVPTGTPAGW
modifications: biotin label (AAL-biotin), site not stated
